# Test results from IntAct's records for PubMed 10921873.
# B1: Coatomer subunit alpha (Saccharomyces cerevisiae), P53622 (parent)
# chain: MKMLTKFESKSTRAKGIAFHPSRPWVLVALFSSTIQLWDYRMGTLLHRFEDHEGPVRGLDFHPTQPIFVSAGDDYTIKVWSLDTNKCLYTLTGHLDYVRTVFFHRELPWIISASDDQTIRIWNWQNRKEIACLTGHNHFVMCAQFHPTDDLIVSASLDETIRIWDISGLRKRHSAPGTSSFEEQMSAQQNLLDGSLGDCVVKFILEGHTRGVNWASFHPTLPLIVSGSDDRQVKLWRMSATKAWEVDTCRGHTNNVDSVIFHPHQNLIISVGEDKTLRVWDLDKRTPVKQFKRENDRFWLIAAHPHINLFGAAHDSGIMVFKLDRERPCSFIHQNQLFFVNAEKQIQSFNFQKRVASLPYASLKGIGQPWDAFRSISYNPSQHSVLVNEANGKFALVILPKQPVGAVEPTSVTQDTGNFATFVGRNRFVVYNKNTESVEVRSLENKVTRNIKVEETVRTIVAAGPGSVLVIHPREVILYDVQQGKKVSQLAVKNVKYVSWSLDGQYVALMSKHTITLATKKLELINSMHETIRIKSAAWDETGVLIYSTLNHIRYSLLNGDRGIIKTLEKTLYITKVQGKLVYCLNREGEIEILTIDPTEYRFKKALVNKNFPEVLRLIKDSNLVGQNIISYLQKSGYPEIALQFVQDPHIRFDLALEYGNLDVALDEAKKLNDSSTWERLIQEALAQGNASLAEMIYQTQHSFDKLSFLYLVTGDVNKLSKMQNIAQTREDFGSMLLNTFYNNSTKERSSIFAEGGSLPLAYAVAKANGDEAAASAFLEQAEVDEQDVTLPDQMDASNFVQRPVISKPLEKWPLKEAELSYFEKAVLGQIDDLTIDDETPAVNTTQEQEEPLGEENFNDEDIGEDEGAWDLGDEDLDVGEELPEEVEQGEITSPAQEVETAIWIKNSKLPAVLVAAGAFDAAVQALSKQVGVVKLEPLKKYFTNIYEGCRTYIPSTPCELPAQLGYVRAYDDTVSEDQILPYVPGLDVVNEKMNEGYKNFKLNKPDIAIECFREAIYRITLLMVDDAEDEKLAHKILETAREYILGLSIELERRSLKEGNTVRMLELAAYFTKAKLSPIHRTNALQVAMSQHFKHKNFLQASYFAGEFLKIISSGPRAEQARKIKNKADSMASDAIPIDFDPYAKFDICAATYKPIYEDTPSVSDPLTGSKYVITEKDKIDRIAMISKIGAPASGLRIRV
# partner: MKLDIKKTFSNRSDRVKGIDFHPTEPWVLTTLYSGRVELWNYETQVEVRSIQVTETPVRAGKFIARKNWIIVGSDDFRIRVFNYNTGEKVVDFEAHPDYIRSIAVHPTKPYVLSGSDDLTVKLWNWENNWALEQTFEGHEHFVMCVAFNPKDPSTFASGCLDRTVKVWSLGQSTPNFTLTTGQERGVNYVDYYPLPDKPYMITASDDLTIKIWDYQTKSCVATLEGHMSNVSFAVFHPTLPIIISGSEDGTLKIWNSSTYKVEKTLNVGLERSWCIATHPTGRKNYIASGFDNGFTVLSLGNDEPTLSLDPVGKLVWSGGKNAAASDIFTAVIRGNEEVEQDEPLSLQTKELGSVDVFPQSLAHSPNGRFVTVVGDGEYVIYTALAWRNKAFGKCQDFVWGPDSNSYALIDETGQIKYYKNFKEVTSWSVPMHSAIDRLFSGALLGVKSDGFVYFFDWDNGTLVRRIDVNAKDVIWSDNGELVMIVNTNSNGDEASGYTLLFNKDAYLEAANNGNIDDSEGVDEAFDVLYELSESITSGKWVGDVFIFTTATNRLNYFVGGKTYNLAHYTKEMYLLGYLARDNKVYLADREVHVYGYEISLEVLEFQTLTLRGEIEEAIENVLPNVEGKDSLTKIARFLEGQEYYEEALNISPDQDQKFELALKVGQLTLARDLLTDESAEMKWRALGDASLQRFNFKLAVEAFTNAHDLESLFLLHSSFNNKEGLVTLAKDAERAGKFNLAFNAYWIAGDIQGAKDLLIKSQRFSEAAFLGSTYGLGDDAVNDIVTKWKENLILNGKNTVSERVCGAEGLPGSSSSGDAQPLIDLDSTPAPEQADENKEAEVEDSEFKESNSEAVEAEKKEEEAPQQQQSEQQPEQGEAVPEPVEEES
# Variants of: B1
# Settings: with copb2_yeast SEC27, P41811
row,effect of a mutation on the interaction,Variant
1,decreasing interaction,S1188F
